We go through two molecules from paper PMC11507401, “Functional and Physiological Characterization of Tyrosine Decarboxylases from Olea europaea L. Involved in the Synthesis of the Main Phenolics in Olive Fruit and Virgin Olive Oil” (International Journal of Molecular Sciences, 2024).

One series concerns the target T1, OeTDC1 (Olea europaea, UniProt A0AB74UCV8).
T1 construct: gene TDC1
Put plainly: activity of enzyme extracted and purified with or without PLP. To be noted: PLP in or omitted from lysis and purification buffers; tightly bound cofactor. The class given is biochemical.

The target of the next series is T2, OeTDC2 (Olea europaea, UniProt A0A8S0SA91).
T2 construct: gene OLEA9_A073377
The description is as above. The class given is biochemical. To be noted: PLP in or omitted from lysis and purification buffers; tightly bound cofactor.

Substrate in series [1]: N[C@@H](Cc1ccc(O)c(O)c1)C(=O)O
Nature of the series: purified protein. It counts as biochemical, Olea europaea. The conditions noted are these: 50 mM Tris-HCl pH 8.0, 40 °C, 200 µM PLP, 15 min.

Substrate in series [2]: N[C@@H](Cc1ccc(O)cc1)C(=O)O
Nature of the series: purified protein. It counts as biochemical, Olea europaea. The conditions noted are these: 50 mM Tris-HCl pH 8.0, 40 °C, 200 µM PLP, 15 min.

Usually Km stands for the substrate concentration at which the rate is half of its maximum. By Vmax is commonly meant the top rate of the reaction or transport when substrate is in excess. A word on the kcat: it is the maximal rate divided by the concentration of active sites. Broadly, the kcat/Km is the second-order rate constant that governs catalysis at low substrate concentration.

T2 sequence (A0A8S0SA91 entry or part of it): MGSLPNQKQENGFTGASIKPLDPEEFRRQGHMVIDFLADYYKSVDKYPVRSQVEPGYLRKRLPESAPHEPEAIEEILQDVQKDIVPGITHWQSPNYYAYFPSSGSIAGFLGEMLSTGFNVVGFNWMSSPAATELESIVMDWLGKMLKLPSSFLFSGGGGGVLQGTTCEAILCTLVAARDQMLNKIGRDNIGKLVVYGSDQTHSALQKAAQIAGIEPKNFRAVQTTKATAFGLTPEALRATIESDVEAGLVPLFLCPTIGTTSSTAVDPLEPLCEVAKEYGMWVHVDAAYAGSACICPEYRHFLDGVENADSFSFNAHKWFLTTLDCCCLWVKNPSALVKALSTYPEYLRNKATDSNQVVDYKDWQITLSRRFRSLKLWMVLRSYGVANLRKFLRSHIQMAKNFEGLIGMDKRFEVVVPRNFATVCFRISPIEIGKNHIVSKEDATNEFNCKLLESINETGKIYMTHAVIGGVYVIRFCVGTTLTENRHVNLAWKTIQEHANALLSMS

Regarding `Cc1ncc(COP(=O)(O)O)c(C=O)c1O` [PLP], the “activity of enzyme extracted and purified with or without PLP” value on OeTDC1 and at OeTDC2 was “it was observed that PLP binds tightly to the olive TDC proteins” each time.

B1: OeTDC1 (Olea europaea subsp. europaea) (protein)
chain: MGSLQNQKPENGFTGAPIKPLDPEEFRRQGHMVIDFLADYYKNVEKYPVRSQVQPGYLRKRLPESAPHEPEPIEEILQDVQKDIVPGITHWQSPNYYAYFPSSGSIAGFLGEMLSTGFNVVGFNWMSSPAATELESIVMDWLGKMLNLPSSFLFSGGGGGVLQGTTCEGILCTLVAARDQMLNKIGRDNIGKLVVYGSDQTHSALQKAAQIAGIEPKNFRAVQTTKATAFGLTAEALRSTIESDVEAGLVPLFLCPTVGTTSSTAVDPIGPLCEVAKEYGMWVHVDAAYAGSACILPEYRHFLDGVENADSFSFNAHKWFLTTLDCCCLWVKNPSALVKALSTYPEYLRNKATDSNQVVDYKDWQITLSRRFRSLKLWLVLRSYGVANLRKFLRSHIQMAKNFEGLIGMDKRFEVVVPRNFATVCFRISPIEIGKNHIVSKEEVTNEFNSKLLESINEAGKIYVTHAVIGGVYVIRFCVGTTLTENRHVILAWKTIQEHANALLSMS
For the molecule B1, in the series “purified protein [1]”, the Km was 340 µM, the Vmax came out at 4.08 µmol/min/mg, the kcat came to 3.82 s⁻¹ and the kcat/Km is 11300 M⁻¹ s⁻¹. In “purified protein [2]”, the Km amounted to 1900 µM, the Vmax came to 12.4 µmol/min/mg, the kcat amounted to 12.8 s⁻¹ and the kcat/Km worked out at 6720 M⁻¹ s⁻¹.
